# Starred links: 1 amine or outer side, 2 acyl side, 3 side chain; linkers in the order of their positions; H or OH if unused. Non-standard residues stand in square brackets, D forms with d. Primed or numbered codes have the meaning given here. *: point of attachment. AC4Abu = α-carboxy-4-aminobutyric acid, O=C(C(CCN[*:1])C(=O)[*:3])[*:2]; Oic = O=C(O)[C@@H]1C[C@@H]2CCCC[C@@H]2N1; Phe(4-Cl) = N[C@@H](Cc1ccc(Cl)cc1)C(=O)O; γGlu = O=C(O)[C@H](CCC(=O)[*:2])N[*:1]; NMeR = CN[C@@H](CCCNC(=N)N)C(=O)O; Tridecanoyl = CCCCCCCCCCCCC(=O)*; hArg = N=C(N)NCCCC[C@H](N)C(=O)O; Cha = N[C@@H](CC1CCCCC1)C(=O)O; αMeL = CC(C)C[C@](C)(N)C(=O)O; αMeP = C[C@@]1(C(=O)O)CCCN1; β3hP = O=C(O)C[C@@H]1CCCN1; Nle = CCCC[C@H](N)C(=O)O; Pip′ = not defined here; AEEA = NCCOCCOCC(=O)O; Aib = CC(C)(N)C(=O)O; BLeu = β-leucine
# B1: Apelin polypeptide SEQ ID NO: 516 (peptide)
# peptide: Tridecanoyl-[γGlu][AEEA][AEEA][dQ]R[β3hP][NMeR][Cha]SHKG[Oic][Nle][Aib][Phe(4-Cl)]-OH
# SMILES: CCCCCCCCCCCCC(=O)N[C@@H](CCC(=O)NCCOCCOCC(=O)NCCOCCOCC(=O)N[C@H](CCC(N)=O)C(=O)N[C@@H](CCCNC(=N)N)C(=O)N1CCC[C@H]1CC(=O)N(C)[C@@H](CCCNC(=N)N)C(=O)N[C@@H](CC1CCCCC1)C(=O)N[C@@H](CO)C(=O)N[C@@H](Cc1c[nH]cn1)C(=O)N[C@@H](CCCCN)C(=O)NCC(=O)N1[C@H](C(=O)N[C@@H](CCCC)C(=O)NC(C)(C)C(=O)N[C@@H](Cc2ccc(Cl)cc2)C(=O)O)C[C@@H]2CCCC[C@@H]21)C(=O)O
# B2: Apelin polypeptide SEQ ID NO: 553 (peptide)
# peptide: Tridecanoyl-[γGlu][AEEA][AEEA][dQ]R[β3hP][NMeR][αMeL]SHKG[Oic][Nle][αMeP][Phe(4-Cl)]-OH
# SMILES: CCCCCCCCCCCCC(=O)N[C@@H](CCC(=O)NCCOCCOCC(=O)NCCOCCOCC(=O)N[C@H](CCC(N)=O)C(=O)N[C@@H](CCCNC(=N)N)C(=O)N1CCC[C@H]1CC(=O)N(C)[C@@H](CCCNC(=N)N)C(=O)N[C@@](C)(CC(C)C)C(=O)N[C@@H](CO)C(=O)N[C@@H](Cc1c[nH]cn1)C(=O)N[C@@H](CCCCN)C(=O)NCC(=O)N1[C@H](C(=O)N[C@@H](CCCC)C(=O)N2CCC[C@@]2(C)C(=O)N[C@@H](Cc2ccc(Cl)cc2)C(=O)O)C[C@@H]2CCCC[C@@H]21)C(=O)O
# B3: Apelin polypeptide SEQ ID NO: 520 (peptide)
# peptide: Tridecanoyl-[γGlu][AEEA][AEEA]QP[NMeR][Cha]SHKG[Oic][Nle][Aib][Phe(4-Cl)]-OH
# SMILES: CCCCCCCCCCCCC(=O)N[C@@H](CCC(=O)NCCOCCOCC(=O)NCCOCCOCC(=O)N[C@@H](CCC(N)=O)C(=O)N1CCC[C@H]1C(=O)N(C)[C@@H](CCCNC(=N)N)C(=O)N[C@@H](CC1CCCCC1)C(=O)N[C@@H](CO)C(=O)N[C@@H](Cc1c[nH]cn1)C(=O)N[C@@H](CCCCN)C(=O)NCC(=O)N1[C@H](C(=O)N[C@@H](CCCC)C(=O)NC(C)(C)C(=O)N[C@@H](Cc2ccc(Cl)cc2)C(=O)O)C[C@@H]2CCCC[C@@H]21)C(=O)O
# B4: Apelin polypeptide SEQ ID NO: 396 (peptide)
# peptide: Tridecanoyl-[AC4Abu][AEEA][AEEA]QR[NMeR][αMeL]SHKG[Oic][Nle]P[Phe(4-Cl)]-OH
# SMILES: CCCCCCCCCCCCC(=O)NCCC(C(=O)O)C(=O)NCCOCCOCC(=O)NCCOCCOCC(=O)N[C@@H](CCC(N)=O)C(=O)N[C@@H](CCCNC(=N)N)C(=O)N(C)[C@@H](CCCNC(=N)N)C(=O)N[C@@](C)(CC(C)C)C(=O)N[C@@H](CO)C(=O)N[C@@H](Cc1c[nH]cn1)C(=O)N[C@@H](CCCCN)C(=O)NCC(=O)N1[C@H](C(=O)N[C@@H](CCCC)C(=O)N2CCC[C@H]2C(=O)N[C@@H](Cc2ccc(Cl)cc2)C(=O)O)C[C@@H]2CCCC[C@@H]21
# B5: Apelin polypeptide SEQ ID NO: 504 (peptide)
# peptide: XXXQRPRLSHKGPXPF
# modifications: {TDA}[AC4Abu][Aeea][Aeea]qR[aMePro][hArg][BLeu]SHKG[aMePro][Nle][aMePro][4-Cl-F]{COOH}
# B6: Apelin polypeptide SEQ ID NO: 503 (peptide)
# peptide: XXXQRPRLSHKGXXPF
# modifications: {TDA}[AC4Abu][Aeea][Aeea]qR[aMePro][hArg][BLeu]SHKG[Pip][Nle][aMePro][4-Cl-F]{COOH}
# B7: Apelin polypeptide SEQ ID NO: 476 (peptide)
# peptide: Tridecanoyl-[γGlu][AEEA][AEEA]QRE[NMeR]LSHKGP[Nle]P[Phe(4-Cl)]-OH
# SMILES: CCCCCCCCCCCCC(=O)N[C@@H](CCC(=O)NCCOCCOCC(=O)NCCOCCOCC(=O)N[C@@H](CCC(N)=O)C(=O)N[C@@H](CCCNC(=N)N)C(=O)N[C@@H](CCC(=O)O)C(=O)N(C)[C@@H](CCCNC(=N)N)C(=O)N[C@@H](CC(C)C)C(=O)N[C@@H](CO)C(=O)N[C@@H](Cc1c[nH]cn1)C(=O)N[C@@H](CCCCN)C(=O)NCC(=O)N1CCC[C@H]1C(=O)N[C@@H](CCCC)C(=O)N1CCC[C@H]1C(=O)N[C@@H](Cc1ccc(Cl)cc1)C(=O)O)C(=O)O
# B8: Apelin polypeptide SEQ ID NO: 446 (peptide)
# peptide: Tridecanoyl-[γGlu][AEEA][AEEA]QR[NMeR][Cha]SHKG[Oic][Nle]P[Phe(4-Cl)]-OH
# SMILES: CCCCCCCCCCCCC(=O)N[C@@H](CCC(=O)NCCOCCOCC(=O)NCCOCCOCC(=O)N[C@@H](CCC(N)=O)C(=O)N[C@@H](CCCNC(=N)N)C(=O)N(C)[C@@H](CCCNC(=N)N)C(=O)N[C@@H](CC1CCCCC1)C(=O)N[C@@H](CO)C(=O)N[C@@H](Cc1c[nH]cn1)C(=O)N[C@@H](CCCCN)C(=O)NCC(=O)N1[C@H](C(=O)N[C@@H](CCCC)C(=O)N2CCC[C@H]2C(=O)N[C@@H](Cc2ccc(Cl)cc2)C(=O)O)C[C@@H]2CCCC[C@@H]21)C(=O)O
# Target: T1, rat APJ receptor (rat, UniProt Q9JHG3 1-377)
# T1 sequence (looked up): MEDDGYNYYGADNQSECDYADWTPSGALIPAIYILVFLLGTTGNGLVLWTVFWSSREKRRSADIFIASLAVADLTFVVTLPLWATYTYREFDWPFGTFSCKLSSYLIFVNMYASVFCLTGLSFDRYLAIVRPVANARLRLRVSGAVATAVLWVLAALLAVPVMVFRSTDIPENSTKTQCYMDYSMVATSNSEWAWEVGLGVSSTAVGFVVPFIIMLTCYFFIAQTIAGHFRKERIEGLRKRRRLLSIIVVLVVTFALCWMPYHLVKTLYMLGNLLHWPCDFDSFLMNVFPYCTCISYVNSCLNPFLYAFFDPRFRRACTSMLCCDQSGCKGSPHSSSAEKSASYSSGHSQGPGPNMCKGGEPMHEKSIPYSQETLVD
# Test: cell-based or functional assay
row,Binder,EC50 Rat APJ Receptor (GTPγS assay) [nM]
1,B1,2.02
2,Tridecanoyl-[γGlu][AEEA][AEEA][dQ]R[αMeP][hArg][BLeu]SHKG[Oic][Nle][Aib][Phe(4-Cl)]-OH [Apelin polypeptide SEQ ID NO: 505],0.516
3,B2,2.01
4,B3,56.1
5,Tridecanoyl-[γGlu][AEEA][AEEA][dQ]R[αMeP][hArg][BLeu]SHKG[Oic][Nle][αMeP][Phe(4-Cl)]-OH [Apelin polypeptide SEQ ID NO: 502],4.81
6,B4,1.14
7,Tridecanoyl-[γGlu][AEEA][AEEA][dQ]R[αMeP][Nle][BLeu]SHKG[Oic][Nle][αMeP][Phe(4-Cl)]-OH [Apelin polypeptide SEQ ID NO: 523],71.9
8,Tridecanoyl-[γGlu][AEEA][AEEA]QR[Pip′][NMeR][Cha]SHKG[Oic][Nle]P[Phe(4-Cl)]-OH [Apelin polypeptide SEQ ID NO: 440],4.26
9,B5,23.1
10,Tridecanoyl-[AC4Abu][AEEA][AEEA]QR[αMeP][hArg][BLeu]SHKG[Oic][Nle]P[Phe(4-Cl)]-OH [Apelin polypeptide SEQ ID NO: 392],0.856
11,Tridecanoyl-[γGlu][AEEA][AEEA][dQ]R[β3hP][hArg][BLeu]SHKG[Oic][Nle][Aib][Phe(4-Cl)]-OH [Apelin polypeptide SEQ ID NO: 522],6.77
12,Tridecanoyl-[γGlu][AEEA][AEEA]QR[NMeR][BLeu]SHKG[Oic][Nle]P[Phe(4-Cl)]-OH [Apelin polypeptide SEQ ID NO: 447],14.8
13,Tridecanoyl-[γGlu][AEEA][AEEA][dQ]R[Pip′][NMeR][Cha]SHKG[Oic][Nle][Aib][Phe(4-Cl)]-OH [Apelin polypeptide SEQ ID NO: 517],3.22
14,Tridecanoyl-[γGlu][AEEA][AEEA][dQ]R[Pip′][hArg][BLeu]SHKG[Oic][Nle][Aib][Phe(4-Cl)]-OH [Apelin polypeptide SEQ ID NO: 521],3.21
15,Tridecanoyl-[γGlu][AEEA][AEEA][dQ]R[αMeP][hArg][BLeu]SHKG[Pip′][Nle][Phe(4-Cl)]-OH [Apelin polypeptide SEQ ID NO: 501],68.2
16,Tridecanoyl-[γGlu][AEEA][AEEA][dQ]R[αMeP][hArg][BLeu]SHKG[Oic][Nle][β3hP][Phe(4-Cl)]-OH [Apelin polypeptide SEQ ID NO: 556],69.1
17,Tridecanoyl-[γGlu][AEEA][AEEA][dQ]R[αMeP][hArg][BLeu]SHKG[Oic][Nle][Phe(4-Cl)]-OH [Apelin polypeptide SEQ ID NO: 519],44.7
18,B6,2.12
19,B7,0.873
20,B8,1.9

# Target: T2, human APJ receptor (human, UniProt P35414 1-380)
# T2 sequence (looked up): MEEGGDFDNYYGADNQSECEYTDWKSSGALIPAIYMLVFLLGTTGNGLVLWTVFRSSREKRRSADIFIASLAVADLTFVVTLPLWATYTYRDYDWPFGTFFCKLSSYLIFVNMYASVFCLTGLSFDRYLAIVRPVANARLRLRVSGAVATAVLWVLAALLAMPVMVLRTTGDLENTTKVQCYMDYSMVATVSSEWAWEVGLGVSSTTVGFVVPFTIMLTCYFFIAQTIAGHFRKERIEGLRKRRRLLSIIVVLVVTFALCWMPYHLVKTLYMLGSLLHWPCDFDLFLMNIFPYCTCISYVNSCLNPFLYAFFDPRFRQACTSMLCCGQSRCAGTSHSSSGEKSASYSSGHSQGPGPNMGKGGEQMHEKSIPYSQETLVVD
# Test: cell-based or functional assay
row,Binder,EC50 Human APJ Receptor (GTPγS assay) [nM]
1,B1,0.557
2,Tridecanoyl-[γGlu][AEEA][AEEA][dQ]R[αMeP][hArg][BLeu]SHKG[Oic][Nle][Aib][Phe(4-Cl)]-OH [Apelin polypeptide SEQ ID NO: 505],0.0707
3,B2,2.23
4,B3,9.18
5,Tridecanoyl-[γGlu][AEEA][AEEA][dQ]R[αMeP][hArg][BLeu]SHKG[Oic][Nle][αMeP][Phe(4-Cl)]-OH [Apelin polypeptide SEQ ID NO: 502],0.456
6,B4,0.977
7,Tridecanoyl-[γGlu][AEEA][AEEA][dQ]R[αMeP][Nle][BLeu]SHKG[Oic][Nle][αMeP][Phe(4-Cl)]-OH [Apelin polypeptide SEQ ID NO: 523],25.6
8,Tridecanoyl-[γGlu][AEEA][AEEA]QR[Pip′][NMeR][Cha]SHKG[Oic][Nle]P[Phe(4-Cl)]-OH [Apelin polypeptide SEQ ID NO: 440],3.48
9,B5,1.39
10,Tridecanoyl-[AC4Abu][AEEA][AEEA]QR[αMeP][hArg][BLeu]SHKG[Oic][Nle]P[Phe(4-Cl)]-OH [Apelin polypeptide SEQ ID NO: 392],0.584
11,Tridecanoyl-[γGlu][AEEA][AEEA][dQ]R[β3hP][hArg][BLeu]SHKG[Oic][Nle][Aib][Phe(4-Cl)]-OH [Apelin polypeptide SEQ ID NO: 522],0.523
12,Tridecanoyl-[γGlu][AEEA][AEEA]QR[NMeR][BLeu]SHKG[Oic][Nle]P[Phe(4-Cl)]-OH [Apelin polypeptide SEQ ID NO: 447],9.66
13,Tridecanoyl-[γGlu][AEEA][AEEA][dQ]R[Pip′][NMeR][Cha]SHKG[Oic][Nle][Aib][Phe(4-Cl)]-OH [Apelin polypeptide SEQ ID NO: 517],0.62
14,Tridecanoyl-[γGlu][AEEA][AEEA][dQ]R[Pip′][hArg][BLeu]SHKG[Oic][Nle][Aib][Phe(4-Cl)]-OH [Apelin polypeptide SEQ ID NO: 521],1.03
15,Tridecanoyl-[γGlu][AEEA][AEEA][dQ]R[αMeP][hArg][BLeu]SHKG[Pip′][Nle][Phe(4-Cl)]-OH [Apelin polypeptide SEQ ID NO: 501],10.9
16,Tridecanoyl-[γGlu][AEEA][AEEA][dQ]R[αMeP][hArg][BLeu]SHKG[Oic][Nle][β3hP][Phe(4-Cl)]-OH [Apelin polypeptide SEQ ID NO: 556],18
17,Tridecanoyl-[γGlu][AEEA][AEEA][dQ]R[αMeP][hArg][BLeu]SHKG[Oic][Nle][Phe(4-Cl)]-OH [Apelin polypeptide SEQ ID NO: 519],9.74
18,B6,0.16
19,B7,0.346
20,B8,1.11

# From US10941182 (Amgen, dated 2021)
